Measured values published in publication PMC8009048 (Science (New York, N.Y.), 2017).

Molecular target: HOXB13 DNA binding domain fragment (residues 209-283) (human, UniProt Q92826 209-283)
Experiment: crystal structure

HOXB13 DNA binding domain fragment (residues 209-283), sequence (Q92826 209-283): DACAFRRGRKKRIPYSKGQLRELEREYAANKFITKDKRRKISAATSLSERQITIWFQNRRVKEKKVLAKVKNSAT

binding result: binds
B1: MEIS1 DNA binding domain fragment (residues 279-333) (domain or fragment, human, UniProt O00470 279-333, looked up)
chain: FPKVATNIMRAWLFQHLTHPYPSEEQKKQLAQDTGLTILQVNNWFINARRRIVQP
